Numbered stars: 1 amine (or outer) side, 2 acyl side, 3 side chain; on linkers, the order of the positions; unused ones are H or OH. Bridge positions count the residues as written; N and C are the ends. Side chains are listed from the residue outwards. Ends that are not written are not given here. * marks the point of attachment. C20 diacid = O=C(O)CCCCCCCCCCCCCCCCCCC(=O)*; γGlu = O=C(O)[C@H](CCC(=O)[*:2])N[*:1]; AEEA = NCCOCCOCC(=O)O
T1: human amylin 3(a) receptor (human calcitonin receptor co-expressed with RAMP-3) (human, UniProt P30988 25-474; O60896 24-148, limits assumed)
T1 sequence (looked up) 1: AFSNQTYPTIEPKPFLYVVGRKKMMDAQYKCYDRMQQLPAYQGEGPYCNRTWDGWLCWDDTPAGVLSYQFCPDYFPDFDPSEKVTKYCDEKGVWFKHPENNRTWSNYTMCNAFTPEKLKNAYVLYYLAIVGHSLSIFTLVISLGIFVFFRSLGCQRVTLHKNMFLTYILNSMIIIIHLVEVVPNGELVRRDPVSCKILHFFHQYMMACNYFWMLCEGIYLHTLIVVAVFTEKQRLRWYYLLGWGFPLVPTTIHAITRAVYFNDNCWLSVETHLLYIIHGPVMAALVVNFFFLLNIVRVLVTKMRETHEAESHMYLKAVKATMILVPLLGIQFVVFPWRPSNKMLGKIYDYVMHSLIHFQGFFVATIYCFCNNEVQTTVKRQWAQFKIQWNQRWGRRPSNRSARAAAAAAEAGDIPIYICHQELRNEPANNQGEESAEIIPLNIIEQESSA
T1 sequence (looked up) 2: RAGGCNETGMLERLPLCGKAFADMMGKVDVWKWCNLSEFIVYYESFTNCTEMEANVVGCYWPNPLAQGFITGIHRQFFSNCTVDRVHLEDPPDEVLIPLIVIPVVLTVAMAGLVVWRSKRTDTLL


Each binder was assayed against T1, human amylin 3(a) receptor (human …) (assay: cell-based or functional assay).

Binder	Ratio hCT/hAmylin funct.
{C20 diacid-γGlu}-KCNTATCATQRLAEFLRHSSPNFGAIPSSTNVGSNTP-NH2 (disulfide 2-7 (inferred), also called compound 8)	1.1
{C20 diacid-γGlu}-KCNTATCATQRLAEFLRHSSPNFGAIPSSTNVGSDTP-NH2 (disulfide 2-7 (inferred), also called compound 11)	0.9
{C20 diacid-γGlu}-KCNTATCATQRLADFLRHSSPNFGAIPSSTNVGSNTP-NH2 (disulfide 2-7; SMILES CC[C@H](C)[C@H](NC(=O)[C@H](C)NC(=O)CNC(=O)[C@H](Cc1ccccc1)NC(=O)[C@H](CC(N)=O)NC(=O)[C@@H]1CCCN1C(=O)[C@H](CO)NC(=O)[C@H](CO)NC(=O)[C@H](Cc1c[nH]cn1)NC(=O)[C@H](CCCNC(=N)N)NC(=O)[C@H](CC(C)C)NC(=O)[C@H](Cc1ccccc1)NC(=O)[C@H](CC(=O)O)NC(=O)[C@H](C)NC(=O)[C@H](CC(C)C)NC(=O)[C@H](CCCNC(=N)N)NC(=O)[C@H](CCC(N)=O)NC(=O)[C@@H](NC(=O)[C@H](C)NC(=O)[C@@H]1CSSC[C@H](NC(=O)[C@H](CCCCN)NC(=O)CC[C@H](NC(=O)CCCCCCCCCCCCCCCCCCC(=O)O)C(=O)O)C(=O)N[C@@H](CC(N)=O)C(=O)N[C@@H]([C@@H](C)O)C(=O)N[C@@H](C)C(=O)N[C@@H]([C@@H](C)O)C(=O)N1)[C@@H](C)O)C(=O)N1CCC[C@H]1C(=O)N[C@@H](CO)C(=O)N[C@@H](CO)C(=O)N[C@H](C(=O)N[C@@H](CC(N)=O)C(=O)N[C@H](C(=O)NCC(=O)N[C@@H](CO)C(=O)N[C@@H](CC(N)=O)C(=O)N[C@H](C(=O)N1CCC[C@H]1C(N)=O)[C@@H](C)O)C(C)C)[C@@H](C)O, also called compound 10)	1
{C20 diacid-γGlu}-KCNTATCATQRLAEFLRHSSPNFGAIPSSTNVGSETY-NH2 (disulfide 2-7 (inferred), also called compound 22)	3.8
{C20 diacid-γGlu}-KCNTATCATQRLAEFLRHSSPNFGAPLSSTNVGSNTP-NH2 (disulfide 2-7 (inferred), also called compound 5)	1
K([γGlu-C20 diacid])CNTATCATQRLAEFLRHSSPNFGAIPSSTNVGPNTP-NH2 (disulfide 2-7 (inferred))	0.9
{C20 diacid-γGlu}-KCNTATCATQRLAEFLRHSSPNFGAILPSTNVGSETY-NH2 (disulfide 2-7 (inferred), also called compound 33)	2.2
K([γGlu-C20 diacid])CNTATCATQRLAHFLRHSSPNFGAIPSSTNVGPNTP-NH2 (disulfide 2-7 (inferred))	0.8
{C20 diacid-γGlu}-GRCNTATCATQRLAHFLRHSSPNFGAIPSSTNVGPNTY-NH2 (disulfide 3-8 (inferred))	2.9
{C20 diacid-γGlu}-GRCNTATCATQRLAAFLRHSSPNFGAIPSSTNVGPNTY-NH2 (disulfide 3-8 (inferred))	2.1
{C20 diacid-γGlu-AEEA-AEEA}-KCNTATCATQRLAEFLRHSSPNFGAIPSSTNVGSNTP-NH2 (disulfide 2-7 (inferred), also called compound 20)	3.6
K([γGlu-γGlu-C20 diacid])CNTATCATQRLAEFLRHSSPNFGAIPSSTNVGSNTP-NH2 (disulfide 2-7 (inferred), also called compound 13)	2.2
K([γGlu-C20 diacid])CNTATCATQRLAEFLRHSSPNFGAIPSSTNVGSNTP-NH2 (disulfide 2-7 (inferred), also called compound 12)	1.8
{C20 diacid-γGlu-γGlu}-KCNTATCATQRLAEFLRHSSPNFGAIPSSTNVGSNTP-NH2 (disulfide 2-7 (inferred), also called compound 14)	1.6

From patent US20140087995A1 (published 2014)
